The values that follow come from doi:10.1101/2025.04.23.650334.

The target in the data set is T1, GdFen1 (Giardia duodenalis, UniProt A8B672 1-361).
T1 sequence: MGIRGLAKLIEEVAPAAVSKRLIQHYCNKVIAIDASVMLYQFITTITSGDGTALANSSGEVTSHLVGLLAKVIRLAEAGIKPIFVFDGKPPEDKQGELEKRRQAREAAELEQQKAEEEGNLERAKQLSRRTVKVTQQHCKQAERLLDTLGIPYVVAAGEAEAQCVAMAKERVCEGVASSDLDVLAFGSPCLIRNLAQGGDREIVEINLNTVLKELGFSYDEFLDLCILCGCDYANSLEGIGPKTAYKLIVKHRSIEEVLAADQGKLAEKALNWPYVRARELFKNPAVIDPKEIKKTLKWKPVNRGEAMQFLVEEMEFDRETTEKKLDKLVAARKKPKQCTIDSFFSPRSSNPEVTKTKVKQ
Put plainly: EMSA. Background: In EMSA bound probe runs differently from free probe, usually more slowly.

B1: Flap probe (structured_DNA)
DNA 1: CGCGGATCCCACTACGCCGATTTTTTTTTTTTTTTTTTTTACGTATGCCACGAATTCGCG
DNA 2: CGCGAATTCGTGGCATACGTAAAAAAAAAAAAAAAAAAAAGAGATGCGAGTCTAGACCGG
DNA 3: CCGGTCTAGACTCGCATCTC
In the case of B1, the binding result is given as “binds”.

B2: Bubble probe (structured_DNA)
DNA 1: B1 DNA 1
DNA 2: CGCGAATTCGTGGCATACGTTTTTTTTTTTTTTTTTTTTTTCGGCGTAGTGGGATCCGCG
Turning to B2, the binding result is on record as “binds”.
